B1: TRIM43 (parent)
chain: NNSWIRKNSTMVNSEDIFLLLCLK

Variants of: B1
Assay: protein stability index of a GFP-peptide fusion (GPS, HEK-293T) (PSI 1-6); higher = more stable
Details: c terminus: a fixed tail appended
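Also: lentivirally expressed fusions sorted by FACS into six bins by GFP to DsRed ratio, PSI derived from sequencing read proportions per bin multiplied by bin number.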

Q: Which protein stability index does the source give for NNSWIRKNSTSVNSEDIFLLLCLK [M11S] here?
A: Its protein stability index is 2.27.

Q: With NNSWIRKNSTPVNSEDIFLLLCLK [M11P] as the variant, how does the protein stability index read?
A: The protein stability index was 2.15.

Q: For NNSWIRKNSTRVNSEDIFLLLCLK [M11R], which protein stability index is on record?
A: Its protein stability index is 2.69.

Q: Which protein stability index does the source give for NNSWIRKNSTLVNSEDIFLLLCLK [M11L] here?
A: Its protein stability index is 3.95.

Q: With NNSWIRKNSTMVNSEDIFLFLCLK [L20F] as the variant, how does the protein stability index read?
A: The protein stability index was 2.92.

Q: For NNSWIRKNSTMVNSEDIFLILCLK [L20I], which protein stability index is on record?
A: The protein stability index was 2.64.

Q: For NNSWIRKNSTMVNSEDIFLTLCLK [L20T], which protein stability index is on record?
A: Its protein stability index is 2.72.

Q: With NNSWIRKNSTMVNSEDIFLHLCLK [L20H] as the variant, how does the protein stability index read?
A: Its protein stability index is 2.5.

Q: With NNSWIRKNSTMVNSEDIFLYLCLK [L20Y] as the variant, how does the protein stability index read?
A: The protein stability index was 2.75.

Q: Which protein stability index does the source give for NNSWIRKNSTMVNSEDIFLDLCLK [L20D] here?
A: The protein stability index was 2.27.

Q: For NNSWIRKNSTMVNSEDIFLPLCLK [L20P], which protein stability index is on record?
A: The protein stability index was 2.46.

Q: Which protein stability index does the source give for NNSWIRKNSTMVNSEDIFLCLCLK [L20C] here?
A: The protein stability index was 2.25.

Q: Which protein stability index does the source give for NNSWIRKNSTMVNSEDIFLSLCLK [L20S] here?
A: The protein stability index was 2.28.

Q: Which protein stability index does the source give for NNSWIRKNSTMVNSEDIFLRLCLK [L20R] here?
A: The protein stability index was 1.72.

Q: Which protein stability index does the source give for NNSWIRKNSTMVNSEDIFLELCLK [L20E] here?
A: Its protein stability index is 1.75.

Q: For NNSWIRKNSTMVNSEDIFLVLCLK [L20V], which protein stability index is on record?
A: The protein stability index was 2.57.

Q: With NNSWIRKNSTMVNSEDIFLLNCLK [L21N] as the variant, how does the protein stability index read?
A: The protein stability index was 1.58.

Q: Which protein stability index does the source give for NNSWIRKNSTMVNSEDIFLLQCLK [L21Q] here?
A: The protein stability index was 2.44.

Q: Which protein stability index does the source give for NNSWIRKNSTMVNSEDIFLLCCLK [L21C] here?
A: Its protein stability index is 3.87.

Q: Which protein stability index does the source give for NNSWIRKNSTMVNSEDIFLLICLK [L21I] here?
A: Its protein stability index is 3.08.

Q: For NNSWIRKNSTMVNSEDIFLLGCLK [L21G], which protein stability index is on record?
A: Its protein stability index is 1.83.

Q: Which protein stability index does the source give for NNSWIRKNSTMVNSEDIFLLHCLK [L21H] here?
A: The protein stability index was 2.39.

Q: For NNSWIRKNSTMVNSEDIFLLECLK [L21E], which protein stability index is on record?
A: Its protein stability index is 3.8.

Q: Which protein stability index does the source give for NNSWIRKNSTMVNSEDIFLLPCLK [L21P] here?
A: The protein stability index was 2.37.

Q: For NNSWIRKNSTMVNSEDIFLLFCLK [L21F], which protein stability index is on record?
A: The protein stability index was 1.95.

Q: For NNSWIMKNSTMVNSEDIFLLLCLK [R6M], which protein stability index is on record?
A: The protein stability index was 2.76.

Q: Which protein stability index does the source give for NNSWIWKNSTMVNSEDIFLLLCLK [R6W] here?
A: Its protein stability index is 3.13.

Q: With NNSWISKNSTMVNSEDIFLLLCLK [R6S] as the variant, how does the protein stability index read?
A: The protein stability index was 2.97.

Q: For NNSWIHKNSTMVNSEDIFLLLCLK [R6H], which protein stability index is on record?
A: Its protein stability index is 3.75.

Q: For NNSWIIKNSTMVNSEDIFLLLCLK [R6I], which protein stability index is on record?
A: Its protein stability index is 2.66.

Q: With NNSWIPKNSTMVNSEDIFLLLCLK [R6P] as the variant, how does the protein stability index read?
A: Its protein stability index is 2.75.

Q: Which protein stability index does the source give for NNSWIRKNSTMINSEDIFLLLCLK [V12I] here?
A: The protein stability index was 2.53.

Q: Which protein stability index does the source give for NNSWIRKNSTMFNSEDIFLLLCLK [V12F] here?
A: The protein stability index was 2.89.

Q: Which protein stability index does the source give for NNSWIRKNSTMPNSEDIFLLLCLK [V12P] here?
A: The protein stability index was 2.79.

Q: With NNSWIRKNSTMDNSEDIFLLLCLK [V12D] as the variant, how does the protein stability index read?
A: The protein stability index was 1.97.

Q: With NNSWIRKNSTMRNSEDIFLLLCLK [V12R] as the variant, how does the protein stability index read?
A: Its protein stability index is 4.39.

Q: With NNSWIRKNSTMVNSEDIFLLLCSK [L23S] as the variant, how does the protein stability index read?
A: The protein stability index was 2.42.

Q: For NNSWIRKNSTMVNSEDIFLLLCFK [L23F], which protein stability index is on record?
A: The protein stability index was 3.62.

Q: With NNSWIRKNSTMVNSEDIFLLLCPK [L23P] as the variant, how does the protein stability index read?
A: Its protein stability index is 2.15.

Q: For NNSWIRKNSTMVNSEDIFLLLCKK [L23K], which protein stability index is on record?
A: Its protein stability index is 1.54.

Q: Which protein stability index does the source give for NNSWIRKNSTMVNSEDIFLLLCCK [L23C] here?
A: Its protein stability index is 1.84.

Q: For NNSWIRKNSTMVNSEDIFLLLCYK [L23Y], which protein stability index is on record?
A: The protein stability index was 2.25.

Q: With NNSWIRKNSTMVNSEDIFLLLCDK [L23D] as the variant, how does the protein stability index read?
A: The protein stability index was 1.95.

Q: Which protein stability index does the source give for NNSWIRKNSTMVNSEDIELLLCLK [F18E] here?
A: The protein stability index was 1.47.

Q: With NNSWIRKNSTMVNSEDIKLLLCLK [F18K] as the variant, how does the protein stability index read?
A: The protein stability index was 2.23.

Q: Which protein stability index does the source give for NNSWIRKNSTMVNSEDIHLLLCLK [F18H] here?
A: Its protein stability index is 2.42.

Q: Which protein stability index does the source give for NNSWIRKNSTMVNSEDITLLLCLK [F18T] here?
A: Its protein stability index is 1.83.

Q: For NNSWIRKNSTMVNSEDINLLLCLK [F18N], which protein stability index is on record?
A: Its protein stability index is 1.54.

Q: For NNSWIRKNSTMVNSEDIQLLLCLK [F18Q], which protein stability index is on record?
A: The protein stability index was 2.5.

Q: For NNSWIRKNSTMVNSEDIDLLLCLK [F18D], which protein stability index is on record?
A: The protein stability index was 2.42.

Q: With NNSWIRKNSTMVNSEDIMLLLCLK [F18M] as the variant, how does the protein stability index read?
A: The protein stability index was 4.64.

Q: For NNSWIRKNSTMVNSEDIGLLLCLK [F18G], which protein stability index is on record?
A: Its protein stability index is 1.51.

Q: Which protein stability index does the source give for NNSWIRKNSTMVNSEDIWLLLCLK [F18W] here?
A: The protein stability index was 2.46.

Q: With NNSWIRKNSTMVNSEDISLLLCLK [F18S] as the variant, how does the protein stability index read?
A: The protein stability index was 1.64.

Q: For NNSWIRKQSTMVNSEDIFLLLCLK [N8Q], which protein stability index is on record?
A: Its protein stability index is 2.93.

Q: For NNSWIRKHSTMVNSEDIFLLLCLK [N8H], which protein stability index is on record?
A: Its protein stability index is 1.79.

Q: For NNSWIRKVSTMVNSEDIFLLLCLK [N8V], which protein stability index is on record?
A: The protein stability index was 1.94.

Q: With NNSWIRKKSTMVNSEDIFLLLCLK [N8K] as the variant, how does the protein stability index read?
A: The protein stability index was 2.4.

Q: For NNSWIRKCSTMVNSEDIFLLLCLK [N8C], which protein stability index is on record?
A: Its protein stability index is 2.24.

Q: With NNSWIRKSSTMVNSEDIFLLLCLK [N8S] as the variant, how does the protein stability index read?
A: The protein stability index was 2.69.

Q: With NNSWIRKWSTMVNSEDIFLLLCLK [N8W] as the variant, how does the protein stability index read?
A: Its protein stability index is 2.99.

Q: For NNSWIRKNSTMVNSEDIFILLCLK [L19I], which protein stability index is on record?
A: Its protein stability index is 2.63.

Q: With NNSWIRKNSTMVNSEDIFQLLCLK [L19Q] as the variant, how does the protein stability index read?
A: Its protein stability index is 2.21.

Q: For NNSWIRKNSTMVNSEDIFYLLCLK [L19Y], which protein stability index is on record?
A: Its protein stability index is 3.02.

Q: For NNSWIRKNSTMVNSEDIFMLLCLK [L19M], which protein stability index is on record?
A: Its protein stability index is 2.08.

Q: With NNSWIRKNSTMVNSEDIFTLLCLK [L19T] as the variant, how does the protein stability index read?
A: Its protein stability index is 1.69.

Q: For NNSWIRKNSTMVNSEDIFRLLCLK [L19R], which protein stability index is on record?
A: Its protein stability index is 1.7.

Q: Which protein stability index does the source give for NNSWIRKNSTMVNSEDIFCLLCLK [L19C] here?
A: The protein stability index was 2.32.

Q: With NNSWIRKNSTMVNSEDIFFLLCLK [L19F] as the variant, how does the protein stability index read?
A: Its protein stability index is 2.07.

Q: Which protein stability index does the source give for NNSWIRKNSTMVNSEDIFALLCLK [L19A] here?
A: Its protein stability index is 2.25.

Q: Which protein stability index does the source give for NNSWIRKNSTMVNSEDIFNLLCLK [L19N] here?
A: Its protein stability index is 1.83.

Q: With NNSWIRKNSTMVNSEDIFDLLCLK [L19D] as the variant, how does the protein stability index read?
A: Its protein stability index is 2.01.

Q: With NNSWIRKNSTMVNSEKIFLLLCLK [D16K] as the variant, how does the protein stability index read?
A: The protein stability index was 3.16.

Q: For NNSWIRKNSTMVNSEQIFLLLCLK [D16Q], which protein stability index is on record?
A: The protein stability index was 2.49.

Q: With NNSWIRKNSTMVNSEEIFLLLCLK [D16E] as the variant, how does the protein stability index read?
A: Its protein stability index is 3.13.

Q: Which protein stability index does the source give for NNSWIRKNSTMVNSETIFLLLCLK [D16T] here?
A: The protein stability index was 2.47.

Q: For NNSWIRKNSTMVNSEGIFLLLCLK [D16G], which protein stability index is on record?
A: Its protein stability index is 2.5.

Q: Which protein stability index does the source give for NNSWIRKNSTMVNSERIFLLLCLK [D16R] here?
A: Its protein stability index is 2.8.

Q: For NNSWIRKNSTMVNSEYIFLLLCLK [D16Y], which protein stability index is on record?
A: The protein stability index was 2.65.

Q: Which protein stability index does the source give for NNSWIRKNSTMVNSEFIFLLLCLK [D16F] here?
A: Its protein stability index is 2.37.

Q: Which protein stability index does the source give for NNSWIRKNSTMVNSESIFLLLCLK [D16S] here?
A: The protein stability index was 1.7.

Q: Which protein stability index does the source give for NNSWIRKNSTMVNSELIFLLLCLK [D16L] here?
A: Its protein stability index is 2.59.

Q: Which protein stability index does the source give for NNSWIRKNSTMVNSEAIFLLLCLK [D16A] here?
A: The protein stability index was 1.59.

Q: With NNSWIRKNSTMVNSYDIFLLLCLK [E15Y] as the variant, how does the protein stability index read?
A: The protein stability index was 3.03.

Q: With NNSWIRKNSTMVNSWDIFLLLCLK [E15W] as the variant, how does the protein stability index read?
A: The protein stability index was 2.01.

Q: Which protein stability index does the source give for NNSWIRKNSTMVNSFDIFLLLCLK [E15F] here?
A: Its protein stability index is 2.69.

Q: Which protein stability index does the source give for NNSWIRKNSTMVNSHDIFLLLCLK [E15H] here?
A: The protein stability index was 2.77.

Q: With NNSWIRKNSTMVNSPDIFLLLCLK [E15P] as the variant, how does the protein stability index read?
A: Its protein stability index is 1.87.

Q: For NNSWIRKNSTMVNSADIFLLLCLK [E15A], which protein stability index is on record?
A: Its protein stability index is 3.44.

Q: Which protein stability index does the source give for QNSWIRKNSTMVNSEDIFLLLCLK [N1Q] here?
A: The protein stability index was 2.11.

Q: With LNSWIRKNSTMVNSEDIFLLLCLK [N1L] as the variant, how does the protein stability index read?
A: Its protein stability index is 2.47.

Q: With YNSWIRKNSTMVNSEDIFLLLCLK [N1Y] as the variant, how does the protein stability index read?
A: Its protein stability index is 2.79.

Q: For RNSWIRKNSTMVNSEDIFLLLCLK [N1R], which protein stability index is on record?
A: Its protein stability index is 2.71.

Q: With FNSWIRKNSTMVNSEDIFLLLCLK [N1F] as the variant, how does the protein stability index read?
A: The protein stability index was 3.27.

Reference: the supplement of paper PMC10567573
